The source of these data is US20220017618A1 (JIANGSU HENGRUI MEDICINE, published 2022).

For test [1], the target named is T1, Full-length TIM-3 (TIM-3-full length) on TIM-3-overexpressing cells (human, UniProt Q8TDQ0 22-301).
T1 construct: It was used to construct the TIM-3-overexpressing cell lines; The template is UniProt Q8TDQ0 (printed); also called human TIM-3; HAVCR2
As to the kind of experiment: binding to TIM-3-overexpressing cells, hybridoma screening (clones positive for cell binding).

Test [2] has as its target T2, TIM-3 extracellular region with Flag and His tags: TIM-3-Flag-His (human).
T2 construct: The template is UniProt Q8TDQ0 (printed); also called human TIM-3; HAVCR2
As to the kind of experiment: TIM-3 binding ELISA, hybridoma screening (clones positive for protein binding). On the technique in general: ELISA stands for enzyme-linked immunosorbent assay.

B1: mAb-1799 (antibody, V domains shown)
VH: EVKLVESEGGLVQPGSSMKLSCTASGFTFSDYYMAWVRQVPEKGLEWVANINYDGSSTYYLDSLKSRFIISRDNAKNILYLQMNSLKSDDTATYYCARDVGYYGGNYGFAYWGQGTLVTVSA
VL: DIQMTQSPASLSASVGETVTITCRASDNIYSYLAWYQQKQGKSPQLLVYNAKTLAEGVPSRFSGSGSGTQFSLKINSLQPEDFGSYYCQQHYGSPLTFGAGTKLELK
notes: Murine antibody secreted by a hybridoma
Turning to B1, the binding result in test [1] and in test [2] was “binds” each time.
